Results reported in patent US11723946B2, “Methods for regulating transcription of multiple genes and expression of multiple targets” (CHINA MEDICAL UNIVERSITY, priority 2014, dated 2023).

Key:
[1] = test system: NF-κB; experiment: Ex vivo bioluminescent imaging of organs, LPS-induced NF-κB/luc transgenic mice; assay type: in vivo
Description: The mice of the three groups manipulated in example 3 were abdominally injected with 150 mg/Kg luciferin. After luciferin injection for 5 minutes, the mice were sacrificed and the tissues including brain, heart, lung, liver, spleen, stomach, kidney, ovary and intestine were rapidly removed. The collected tissues were placed in the IVIS Imaging System-200 Series (Xenogen, Hopkinton, Mass.) and imaged with the same setting used for in vivo bioluminescent imaging.
In the table 2, the average of luciferin value in the mice of the group 2 was divided to average of luciferin value in the mice of the group 1 to obtain the fold change. In table 3, the average of luciferin value in the mice of the group 3 was divided to the average of luciferin value in the mice of the group 2 to obtain the fold change.

[2] = test system: IL-1β; experiment: Immunohistochemistry staining of organs, LPS-induced mice; assay type: in vivo; details: group 3 vs group 2 (LPS)
Sequence of IL-1β (P10749 118-269): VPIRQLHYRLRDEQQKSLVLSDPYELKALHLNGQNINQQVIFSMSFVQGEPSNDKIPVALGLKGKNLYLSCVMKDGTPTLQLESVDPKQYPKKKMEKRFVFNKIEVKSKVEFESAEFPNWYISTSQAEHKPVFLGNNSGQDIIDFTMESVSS
Description: (§1) Immunohistochemistry (IHC) would be known by an ordinary person skilled in the art. The organs were collected from the mice of the each group for paraffin embedding and histology section. The parafilm-embedded organs were cut into […] sections, deparaffinized in xylene and then rehydrated in graded alcohol. Endogenous peroxidase was quenched with 3% hydrogen peroxide in methanol for 15 mins and the nonspecific binding was blocked with 1% bovine serum albumin at room temperature for 1 hour. The blocked sections were further incubated with 50-folds diluted mouse monoclonal antibodies against p56, TNF-α or IL-1β proteins at 4° C. for 16-18 hours, respectively and then incubated with biotinylated secondary antibodies (Zymed Laboratories, South San Francisco, Calif.) that against the Fc fragment of the co-responding first antibody at room temperature for 20 minutes. Finally, the slides were incubated with avidin-biotin complex reagent and stained with 3,3′-diaminobenzidine according to manufacturer's protocol (Histostain®-Plus Kit, Zymed Laboratories, South San Francisco, Calif.).

[3] = test system: TNF-α; experiment: as above; assay type: in vivo; details: group 3 vs group 2 (LPS)
Description: as §1

[4] = Hepatic histology (H&E, oil red-O) in high fat diet mice; assay type: in vivo; details: 10 mmol/kg peritoneal injection twice weekly, 4 weeks, group 3 vs group 2
Description: (§2) 30 wild-type FVB mice were randomly divided into three groups, wherein the mice of the group 1 were the blank group that were fed with normal condition. The mice of the control group (the group 2) and the experimental group (the group 3) were fed with high fat diet. […] The mice in the group 2 and the group 3 were peritoneally injected with 100 μl of PBS.
(§3) After the administration, livers in the mice of the each group were collected for the histology sections. The hepatic histology of livers in the mice of the each group was […] for H&E staining and oil red-O staining to examined the lipid accumulation in liver, respectively. Furthermore, the product of lipid oxidation in hepatocytes was examined by IHC staining described in example 3 with antibodies against 4-hydroxynonenal ([…]) or malondialdehyde (MDA) on the hepatic tissues of the each group.

[5] = test system: 4-hydroxynonenal, malondialdehyde; experiment: IHC of lipid oxidation products in hepatic tissue, high fat diet mice; assay type: in vivo; details: 10 mmol/kg peritoneal injection twice weekly, 4 weeks, group 3 vs group 2
Description: as §2, §3

[6] = Muscle histology (H&E) in genetic deficient mice; assay type: in vivo; details: 2.5 nmol/kg peritoneal twice a week, 4 weeks; vs control mice
Source text: Collecting the muscles from the mice of the both groups stated in example 5. The collected muscles were for histological examination. In the histology examination, the cell number and cellular size of the muscular tissue were examined by H&E staining and microscopy observation.

[7] = Survival, diabetes incidence and retinopathy in NOD mice; assay type: in vivo; details: 20 weeks; for Incidence of diabetes, mice/mice: control 2/6; for Diabetes-induced retinopathy, mice/mice: control 3/6; for Survival rate, mice/mice: control 4/6
Description: (§4) 23 mice were divided into four groups with different administrations for 20 weeks, wherein 6 mice of the group 1 were control mice that were daily orally administrated with 20 μl of PBS. 6 mice of the group 2 were daily orally administrated with 20 μl of 0.01 umol/kg solution that contained the present polypeptide comprising the amino acid sequence of SEQ ID No. 1. 6 mice of the group 3 were daily orally administered with 20 μl of 0.1 umol/kg solution that contained the present polypeptide comprising the amino acid sequence of SEQ ID No. 1. 5 mice of the group 4 were daily orally administrated with 20 μl of 1 umol/kg solution that contained the present polypeptide comprising the amino acid sequence of SEQ ID No. 1.
(§5) During the administration period, the survival rate, incidence of diabetes and diabetes-induced retinopathy in the each group were measured and shown in table 5. After the administration, the blood samples were collected for serological and biochemical analysis.

[8] = Serological and biochemical analysis in NOD mice; assay type: in vivo; details: 20 weeks; for Creatinine in serum: control 0.70 ± 0.05; for BUN: control 40.50 ± 4.54
Description: as §4, §5

[9] = test system: Muscle (IGF and adipocytokine signaling pathway genes); details: 2.5 mmol/kg daily, 7 days
Description: (§6) The wild-type FVB mice were divided into the control group and the experimental group, wherein the mice in the experimental group were daily administered with 20 μl peptide-containing solution that contains 2.5 mmol/kg of the present peptide for 7 days. Moreover, the mice in the control group were daily administrated with 20 μl PBS solution for 7 days.
(§7) After the daily administration, the tissues of column, muscle, fat pad, liver and kidney were collected for analyzing the expression of multiple targets by system biology analysis. Herein, the altered expressions of the targets in the genome were determined by using DNA microarray which is a well-established tool for systematic biology analysis. Furthermore, the results of the DNA microarray were further categorized and analyzed by bioinformatics analysis to determine the effect and affected signaling pathways of the present polypeptide.
(§8) (1) RNA preparation: The total RNA was extracted from the tissue by using RNeasy Mini Kit (Qiagen, Valencia, Calif., USA). The amount of the extracted total RNA was measured by Beckman DU800 spectrophotometer (Beckman Coulter, Fullerton, Calif., USA). In the next step, the quality of the RNA sample with A260/A280 ratio more than 1.8 was further evaluated by Agilent 2100 bioanalyzer (Agilent Technologies, Santa Clara, Calif., USA). When with the RNA integrity number of the sample is more than 8.0, it would be analyzed by the following microarray analysis.
(§9) (2) DNA microarray analysis: The procedure of DNA microarray analysis was conducted according to the reference (Cheng, 2007). Briefly, 5 μg of total RNA was amplified by in vitro transcription using MessageAmp™ aRNA kit (Ambion). In the following, the fluorescence dye, Cy5, was chemically labeled on the amplified RNA (aRNA). After the labeling, the fluorescence labeled aRNA was hybridized with Whole Genome OneArray™ in hybridization buffer (Phalanx Biotech Group, Taiwan) on cover slide. Following the hybridization reaction at 50° C. over-night, the non-specific binding on the chip was washed by three washing steps. The washed chip was dried by centrifugation and was scanned by Axon 4000 scanner (Molecular Devices, Sunnyvale, Calif., USA) to measure the fluorescence signals. The fluorescence intensity of Cy5 on each spots was further analyzed by genepix 4.1 (Molecular Devices). First, the signals of each spot were adjusted by deducting the intensity of background. In the next step, the spots including the probes of internal controls or the spots with the signal-to-noise ratios less than 0 would be removed. The qualified spots were normalized by limma package which is belonged to R console (Smyth, 2005).

[10] = test system: Fat pad (fatty acid metabolism genes); details: Up-regulated, 2.5 mmol/kg daily, 7 days
Description: as §6, §7, §8, §9

[11] = group 3 (LPS + 0.5 mg/Kg polypeptide IP) vs group 2 (LPS), down-regulation
[12] = group 3 (LPS + 0.5 mg/Kg polypeptide IP) vs group 2 (LPS), up-regulation
[13] = Group 2: 0.01 umol/kg daily oral
[14] = Group 3: 0.1 umol/kg daily oral
[15] = Adipocytokine signaling pathway, Down-regulated
[16] = IGF signaling pathway, Up-regulated

B1: present polypeptide: polypeptide comprising the amino acid sequence of SEQ ID No. 1; made by peptide synthesis, recombinant expression or extraction from Momordica charantia (peptide, listed as Artificial synthsis)
chain: SRCQGKSSWPQLVGSTGAAAKAWIERENPRVRAVIIKVGSGATKDFRCDRVRVWVTERGIVARPPTIG
In the case of B1, the “luminescent intensities detected from lung, liver, kidney and intestine” value ([1]; experimental group (group 3) compared with control group (group 2)) is reported as “obviously decreased”, the “Fold change of the luciferin value, Intestine” value [1, 11] is reported as 1.96 and the “Fold change of the luciferin value, Kidney” value [1, 11] is reported as 1.08. For the same molecule, the “Fold change of the luciferin value, Liver” value [1, 11] was 1.57, the “Fold change of the luciferin value, Lung” value [1, 11] was 1.68 and the “Fold change of the luciferin value, Brain” value [1, 12] was 1.40. For the same molecule, the “Fold change of the luciferin value, Heart” value [1, 12] was 1.13, the “Fold change of the luciferin value, Ovary” value [1, 12] was 1.17 and the “Fold change of the luciferin value, Spleen” value [1, 12] was 1.08. For the same molecule, the “Fold change of the luciferin value, Stomach” value [1, 12] was 1.11, the “brown zone (active IL-1β signal) in tissue, IHC” value [2] was “obviously less than the group 2” and the “brown zone (active TNF-α signal) in tissue, IHC” value [3] was “obviously less than the group 2”. The “lipid accumulation in the liver” value [4] was “less lipid accumulation”, the “products of lipid oxidation (HNE, MDA) in hepatic tissue” value [5] was “obviously decreased” and the “muscular dystrophy (H&E histology of muscle)” value [6] was “improved the muscular dystrophy”. The “Incidence of diabetes, mice/mice” value [7, 13] was 0/6, the “Diabetes-induced retinopathy, mice/mice” value [7, 13] was 0/6 and the “Survival rate, mice/mice” value [7, 13] was 6/6. For the same molecule, the “Incidence of diabetes, mice/mice” value [7, 14] was 0/6, the “Diabetes-induced retinopathy, mice/mice” value [7, 14] was 1/6 and the “Survival rate, mice/mice” value [7, 14] was 6/6. For the same molecule, the “Incidence of diabetes, mice/mice” value ([7]; Group 4: 1 umol/kg daily oral) was 1/5, the “Diabetes-induced retinopathy, mice/mice” value ([7]; Group 4: 1 umol/kg daily oral) was 1/5 and the “Survival rate, mice/mice” value ([7]; Group 4: 1 umol/kg daily oral) was 5/5. For the same molecule, the Creatinine in serum [8, 13] was 0.64 ± 0.12 mg/dL, the BUN [8, 13] was 37.38 ± 2.77 mg/dL and the Creatinine in serum [8, 14] was 0.69 ± 0.06 mg/dL. For the same molecule, the BUN [8, 14] was 38.50 ± 4.69 mg/dL, the Creatinine in serum ([8]; Group 4: 1 umol/kg daily oral) was 0.69 ± 0.06 mg/dL and the BUN ([8]; Group 4: 1 umol/kg daily oral) was 35.88 ± 6.33 mg/dL. The “Fold, Acsl1” value [9, 15] was 4.56 folds, the “Fold, Akt1” value [9, 15] was 1.57 folds and the “Fold, Cd36” value [9, 15] was 2.42 folds. For the same molecule, the “Fold, Nfkbia” value [9, 15] was 2.55 folds, the “Fold, Prkag1” value [9, 15] was 1.93 folds and the “Fold, Ptpn11” value [9, 15] was 2.31 folds. The “Fold, Stat3” value [9, 15] was 1.55 folds, the “Fold, Adprt1” value [9, 16] was “Up-regulated 1.9 folds” and the “Fold, Cabin1” value [9, 16] was “Up-regulated 2.4 folds”. For the same molecule, the “Fold, Igfbp5” value [9, 16] was “Up-regulated 1.9 folds”, the “Fold, Irs1” value [9, 16] was “Up-regulated 3.7 folds” and the “Fold, Map2k2” value [9, 16] was “Up-regulated 1.6 folds”. For the same molecule, the “Fold, Mdk” value [9, 16] was “Up-regulated 3.4 folds”, the “Fold, Mmp13” value [9, 16] was “Up-regulated 3.0 folds” and the “Fold, Myh1” value [9, 16] was “Up-regulated 3.2 folds”. The “Fold, Nfatc3” value [9, 16] was “Up-regulated 1.5 folds”, the “Fold, Pik3r1” value [9, 16] was “Up-regulated 1.8 folds” and the “Fold, Rps6kb1” value [9, 16] was “Up-regulated 4.7 folds”. The “Fold, Spp1” value [9, 16] was “Up-regulated 3.6 folds”, the “Fold, Twist 1” value [9, 16] was “Up-regulated 2.1 folds” and the “Fold, Vegfa” value [9, 16] was “Up-regulated 1.5 folds”. The “Fold, Acox1” value [10] was “Up-regulated 2.0 folds”, the “Fold, Acsl4” value [10] was “Up-regulated 5.1 folds” and the “Fold, Cpt1a” value [10] was “Up-regulated 3.1 folds”. The “Fold, Cpt2” value [10] was “Up-regulated 1.5 folds”, the “Fold, Hsd17b4” value [10] was “Up-regulated 1.7 folds” and the “Fold, Sirt1” value [10] was “Up-regulated 3.0 folds”.
